“And” between values parts separate entries of the source, which are not always exact repeats. Equal entries are not always repeated.
Target: the molecule itself
Experiment: SEC

B1: Synechocystis sp. PCC 6803 fructose-1,6-bisphosphatase (FBPase; slr0952) (enzyme, UniProt P74324 1-347, looked up)
chain: MTVSEIHIPNSLLDRDCTTLSRHVLQQLNSFGADAQDLSAIMNRIALAGKLIARRLSRAGLMADVLGFTGETNVQGESVKKMDVFANDVFISVFKQSGLVCRLASEEMEKPYYIPENCPIGRYTLLYDPIDGSSNVDINLNVGSIFAIRQQEGDDLDGSASDLLANGDKQIAAGYILYGPSTILVYSLGSGVHSFILDPSLGEFILAQENIRIPNHGPIYSTNEGNFWQWDEALRDYTRYVHRHEGYTARYSGALVGDIHRILMQGGVFLYPGTEKNPDGKLRLLYETAPLAFLVEQAGGRASDGQKRLLDLIPSKLHQRTPAIIGSAEDVKLVESFISDHKQRQGN
- stoichiometry N: 12 and 4

Reference: doi:10.1101/2025.02.14.638281 (bioRxiv, 2025)
